According to PMC6165534, “Inhibition of Homophilic Interactions and Ligand Binding of the Receptor for Advanced Glycation End Products by Heparin and Heparin-Related Carbohydrate Structures” (Medicines, 2018):

B1: RAGE V1-domain Ig-fusion protein (Fc fusion, human, UniProt Q15109 28-119, looked up)
chain: ARIGEPLVLKCKGAPKKPPQRLEWKLNTGRTEAWKVLSPQGGGPWDSVARVLPNGSLFLPAVGIQDEGIFRCQAMNRNGKETKSNYRVRVYQ
notes: RAGE, human, V1-domain, amino acids 28–119; also called V1–Ig; RAGE V1–Fc; source: Drosophila S2 cells, purified (protein A-agarose chromatography)
B2: sRAGE–Ig fusion protein lacking C2-domain (Fc fusion, human, UniProt Q15109 28-231, looked up)
chain: ARIGEPLVLKCKGAPKKPPQRLEWKLNTGRTEAWKVLSPQGGGPWDSVARVLPNGSLFLPAVGIQDEGIFRCQAMNRNGKETKSNYRVRVYQIPGKPEIVDSASELTAGVPNKVGTCVSEGSYPAGTLSWHLDGKPLVPNEKGVSVKEQTRRHPETGLFTLQSELMVTPARGGDPRPTFSCSFSPGLPRHRALRTAPIQPRVWE
notes: RAGE, human, extracellular part without the C2-domain, amino acids 28–231; also called delta C2; source: Drosophila S2 cells, purified (protein A-agarose chromatography)
B3: sRAGE–Ig fusion protein lacking C1-domain (Fc fusion, human, UniProt Q15109 28-331, looked up)
chain: ARIGEPLVLKCKGAPKKPPQRLEWKLNTGRTEAWKVLSPQGGGPWDSVARVLPNGSLFLPAVGIQDEGIFRCQAMNRNGKETKSNYRVRVYQPVPLEEVQLVVEPEGGAVAPGGTVTLTCEVPAQPSPQIHWMKDGVPLPLPPSPVLILPEIGPQDQGTYSCVATHSSHGPQESRAVSISIIEPGEEGPTAG
notes: RAGE, human, extracellular part without the C1-domain, amino acids 28–119 + 232–331; also called delta C1; source: Drosophila S2 cells, purified (protein A-agarose chromatography)

Biological target: the molecule itself
Experiment: bead aggregation assay; monomeric fluorescent protein A coated beads incubated with 10 μg/mL of the Ig-fusion proteins, no other exogenous ligands; aggregation followed by fluorescence microscopy, index Nt/N0, pictures after 60 min

Binding result, binds:
B1
B2
B3
